B1: ETS1 (parent)
chain: YVRDRADLNKDKPVIPAAALAGYT
B2: TPRG1 (parent)
chain: ETIQGFWLLTKIDHWNNEKERILL

Variants of: B1
Test: protein stability index of a GFP-peptide fusion (GPS, HEK-293T) (PSI 1-6); higher = more stable
Settings: c terminus: a fixed tail appended
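Note: lentivirally expressed fusions sorted by FACS into six bins by GFP to DsRed ratio, PSI derived from sequencing read proportions per bin multiplied by bin number.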

| Variant | protein stability index |
| --- | --- |
| YIRDRADLNKDKPVIPAAALAGYT [V2I] | 2.17 |
| YGRDRADLNKDKPVIPAAALAGYT [V2G] | 3.53 |
| YHRDRADLNKDKPVIPAAALAGYT [V2H] | 2.46 |
| YYRDRADLNKDKPVIPAAALAGYT [V2Y] | 3.5 |
| YERDRADLNKDKPVIPAAALAGYT [V2E] | 4.25 |
| YRRDRADLNKDKPVIPAAALAGYT [V2R] | 3.79 |
| YCRDRADLNKDKPVIPAAALAGYT [V2C] | 2.25 |
| YKRDRADLNKDKPVIPAAALAGYT [V2K] | 3.61 |
| YPRDRADLNKDKPVIPAAALAGYT [V2P] | 3 |
| YWRDRADLNKDKPVIPAAALAGYT [V2W] | 3.19 |
| YLRDRADLNKDKPVIPAAALAGYT [V2L] | 3.69 |
| YDRDRADLNKDKPVIPAAALAGYT [V2D] | 4.34 |
| YSRDRADLNKDKPVIPAAALAGYT [V2S] | 3.76 |
| YARDRADLNKDKPVIPAAALAGYT [V2A] | 4.01 |
| YTRDRADLNKDKPVIPAAALAGYT [V2T] | 3.5 |
| YMRDRADLNKDKPVIPAAALAGYT [V2M] | 3.81 |
| YNRDRADLNKDKPVIPAAALAGYT [V2N] | 3.77 |
| YQRDRADLNKDKPVIPAAALAGYT [V2Q] | 2.93 |
| YFRDRADLNKDKPVIPAAALAGYT [V2F] | 2.88 |
| YVDDRADLNKDKPVIPAAALAGYT [R3D] | 2.88 |
| YVADRADLNKDKPVIPAAALAGYT [R3A] | 2.24 |
| YVGDRADLNKDKPVIPAAALAGYT [R3G] | 2.08 |
| YVHDRADLNKDKPVIPAAALAGYT [R3H] | 1.77 |

| Variant | protein stability index |
| --- | --- |
| YVCDRADLNKDKPVIPAAALAGYT [R3C] | 1.75 |
| YVEDRADLNKDKPVIPAAALAGYT [R3E] | 2.76 |
| YVFDRADLNKDKPVIPAAALAGYT [R3F] | 2.33 |
| WVRDRADLNKDKPVIPAAALAGYT [Y1W] | 3.77 |
| QVRDRADLNKDKPVIPAAALAGYT [Y1Q] | 4.41 |
| AVRDRADLNKDKPVIPAAALAGYT [Y1A] | 4.46 |
| GVRDRADLNKDKPVIPAAALAGYT [Y1G] | 4.02 |
| MVRDRADLNKDKPVIPAAALAGYT [Y1M] | 3.85 |
| TVRDRADLNKDKPVIPAAALAGYT [Y1T] | 4.03 |
| PVRDRADLNKDKPVIPAAALAGYT [Y1P] | 3.92 |
| NVRDRADLNKDKPVIPAAALAGYT [Y1N] | 4.3 |
| CVRDRADLNKDKPVIPAAALAGYT [Y1C] | 3.31 |
| IVRDRADLNKDKPVIPAAALAGYT [Y1I] | 3.73 |
| SVRDRADLNKDKPVIPAAALAGYT [Y1S] | 4.24 |
| DVRDRADLNKDKPVIPAAALAGYT [Y1D] | 4.43 |
| HVRDRADLNKDKPVIPAAALAGYT [Y1H] | 3.7 |
| VVRDRADLNKDKPVIPAAALAGYT [Y1V] | 3.65 |
| RVRDRADLNKDKPVIPAAALAGYT [Y1R] | 3.88 |
| EVRDRADLNKDKPVIPAAALAGYT [Y1E] | 4.38 |
| KVRDRADLNKDKPVIPAAALAGYT [Y1K] | 4.18 |
| LVRDRADLNKDKPVIPAAALAGYT [Y1L] | 3.79 |
| FVRDRADLNKDKPVIPAAALAGYT [Y1F] | 2.22 |

Variants of: B2
Test: as above
Settings: c terminus: a fixed tail appended

| Variant | protein stability index |
| --- | --- |
| ETIQGFWLLTKIDHWNNEKEDILL [R21D] | 1.3 |
| ETIQGFWLLTKIDHWNNEKECILL [R21C] | 3.09 |
| ETIQGFWLLTKIDHWNNEKEIILL [R21I] | 2.51 |
| ETIQGFWLLTKIDHWNNEKEPILL [R21P] | 2.58 |
| ETIQGFWLLTKIDHWNNEKEEILL [R21E] | 3.83 |
| ETIQGFWLLTKIDHWNNEKEGILL [R21G] | 2.98 |
| ETIQGFWLLTKIDHWNNEKEKILL [R21K] | 1.66 |
| ETIQGFWLLTKIDHWNNEKEHILL [R21H] | 2.66 |
| ETIQGFWLLTKIDHWNNEKELILL [R21L] | 2.75 |
| ETIQGFWLLTKIDHWNNEKETILL [R21T] | 2.79 |
| ETIQGFWLLTKIDHWNNEKEQILL [R21Q] | 3.52 |
| ETIQGFWLLTKIDHWNNEKERIYL [L23Y] | 4.45 |
| ETIQGFWLLTKIDHWNNEKERIIL [L23I] | 3.88 |
| ETIQGFWLLTKIDHWNNEKERIQL [L23Q] | 1.78 |
| ETIQGFWLLTKIDHWNNEKERIVL [L23V] | 3.52 |
| ETIQGFWLLTKIDHWNNEKERITL [L23T] | 2.42 |
| ETIQGFWLLTKIDHWNNEKERIML [L23M] | 3.45 |
| ETIQGFWLLTKIDHWNNEKERIRL [L23R] | 1.77 |
| ETIQGFWLLTKIDHWNNEKERISL [L23S] | 3.2 |
| ETIQGFWLLTKIDHWNNEKERIEL [L23E] | 2.38 |
| ETIQGFWLLTKIDHWNNEKERIKL [L23K] | 1.23 |
| ETIQGFWLLTKIDHWNNEKERIWL [L23W] | 3.52 |
| ETIQGFWLLTKIDHWNNEKERIAL [L23A] | 2.89 |
| ETIQGFWLLTKIDHWNNEKERIPL [L23P] | 1.95 |
| ETIQGFWLLTKIDHWNNEKERILP [L24P] | 2.8 |

| Variant | protein stability index |
| --- | --- |
| ETIQGFWLLTKIDHWNNEKERILW [L24W] | 2.52 |
| ETIQGFWLLTKIDHWNNEKERILQ [L24Q] | 3.61 |
| ETIQGFWLLTKIDHWNNEKERILN [L24N] | 3.07 |
| ETIQGFWLLTKIDHWNNEKERILC [L24C] | 2.36 |
| ETIQGFWLLTKIDHWNNEKERILH [L24H] | 4.13 |
| ETIQGFWLLTKIDHWNNEKERILK [L24K] | 2.24 |
| ETIQGFWLLTKIDHWNNEKERILG [L24G] | 4.41 |
| ETIQGFWLLTKIDHWNNEKERILV [L24V] | 2.5 |
| ETIQGFWLLTKIDHWNNEKERILM [L24M] | 2.21 |
| ETIQGFWLLTKIDHWNNEKERMLL [I22M] | 3.17 |
| ETIQGFWLLTKIDHWNNEKERPLL [I22P] | 1.61 |
| ETIQGFWLLTKIDHWNNEKERLLL [I22L] | 3.26 |
| ETIQGFWLLTKIDHWNNEKERHLL [I22H] | 2.02 |
| ETIQGFWLLTKIDHWNNEKERFLL [I22F] | 3.5 |
| ETIQGFWLLTKIDHWNNEKERVLL [I22V] | 3.42 |
| ETIQGFWLLTKIDHWNNEKERRLL [I22R] | 1.48 |
| ETIQGFWLLTKIDHWNNEKERYLL [I22Y] | 1.63 |
| ETIQGFWLLTKIDHWNNEKERELL [I22E] | 2.16 |
| ETIQGFWLLTKIDHWNNEKERKLL [I22K] | 2.15 |
| ETIQGFWLLTKIDHWNNEKERQLL [I22Q] | 3.38 |
| ETIQGFWLLTKIDHWNNEKERALL [I22A] | 2.62 |
| ETIQGFWLLTKIDHWNNEKERGLL [I22G] | 1.89 |
| ETIQGFWLLTKIDHWNNEKERDLL [I22D] | 1.01 |
| ETIQGFWLLTKIDHWNNEKERNLL [I22N] | 2.6 |

— the supplement of paper PMC10567573
